The assay deals with T1, SecYEG translocon embedded in phospholipid-containing nanodiscs (Escherichia coli, UniProt P0AGA2 1-443; P0AG96 1-127; P0AG99 1-110).
T1 construct: SecY, Escherichia coli; SecE, Escherichia coli; SecG, Escherichia coli; membrane scaffold protein MSP1D1, the belt of the nanodisc; the disc holds E. coli total lipids; also called non-mutated SecYEG; copies: 1 + 1 + 1 + 2
As to the kind of experiment: not stated; proOmpA75-RNC with SecYEG in nanodiscs (Supplementary Fig. S4b). Conditions: both partners purified.

From article PMC6028451, “Cotranslational protein targeting to the membrane: Nascent-chain transfer in a quaternary complex formed at the translocon” (Scientific Reports, 2018) come the findings set out here.

B1: proOmpA75-RNC: ribosome-nascent-chain complex carrying the nascent chain of outer-membrane protein A (complex)
chain: MKKTAIAIAVALAGFATVAQAAPKDNTWYTGAKLGWSQYHDTGFINNNGPTHENQLGAGAFGGYQVNPYVGFEMG
The Kd is the equilibrium constant for the complex coming apart. A higher Kd goes with a looser complex. Consider B1, for which binding was characterised by a dissociation constant (Kd) of 15 ± 3 nM.
